Source: the supplement of paper PMC9170038

Test system: MS2 coat protein
Test: apparent KD of MS2 coat protein; designed switch direction (-1 OFF switch, 1 ON switch): -1; higher = weaker reporter binding
How it was run: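 Transcription of designed RNA switches on Illumina chips was done by stalled E. coli RNA polymerase. SNAP-549-labelled MS2 coat protein was then titrated in doubling steps from 0.7 or 1.5 nM to 3 µM, with steps of 0.8–1.5 h at the lowest and 10–20 min at the highest concentration. The per-design median over clusters of curve-fitted normalised fluorescence is reported as apparent KD.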

[1] = input ligand: microRNA oligo, concentration not stated
[2] = Eterna round: R95, input ligand: FMN 200 uM
[3] = Eterna round: R95, input ligand: microRNA oligo, concentration not stated
[4] = Eterna round: R95, input ligand: none

Row | Sequence | apparent KD of MS2 coat protein (input ligand: FMN 200 uM) | apparent KD of MS2 coat protein [1] | apparent KD of MS2 coat protein (input ligand: none) | apparent KD of MS2 coat protein [2] | apparent KD of MS2 coat protein [3] | apparent KD of MS2 coat protein [4]
1 | UCACGGGACUGAGGAUAUACAUUUAUUAUUUUAGUAGAAGGCAGAAAGUUAGUUUUUUCACUAUACAUGAGGAUCACCCAUGUU [JR_ExcNG1_Sub085] (Eterna round: R96, puzzle: Exclusion NG 1) | 21.2 nM | 20.4 nM | 29.1 nM |  |  | 
2 | UGGUGGAAGCAGGAUAUGCUUGUAUUAUUGAUAGCAGAAGGGCUAACAUGAGGAUCACCCAUGUAAGAGGUGUA [JR_E6_Sub057] (puzzle: Exclusion 6) |  |  |  | 190 nM | 203 nM | 238 nM
3 | AACGAGGCAGGAUAUACAUGAGGAUCACCCAUGUGCUUGCAUGGCGUGGGAAGUCAUCGUAGAAGGGCUAUGCC [EX3 #64] (Eterna round: R97, puzzle: Exclusion 3) | 210 nM |  | 283 nM |  |  | 
4 | ACAAGCUUUUUGCAUCAAGCAUUAAAGUCUGUGAUCGUAACAUGAGGAUCACCCAUGUAAGUUUUAUGACGUCUUAU [JR_SV3TOV2_Sub096] (puzzle: Sensor v3, turn-off variant 2) |  |  |  | 24.8 nM | 39.8 nM | 25.3 nM
5 | CCCAUGUCAGGAUAUUAAUUGAGCAGGAAGCCCUGUUCACUUGAGAAGGGACAUGAGGAUCACCCAUGUAAAAC [Aesvea] (Eterna round: R97, puzzle: Exclusion 4) | 30.1 nM |  | 384 nM |  |  | 
6 | UUUUUGUGAGGAUAUCAGUAGUAGAACAAUAGUACUACUACUGAGAAGGUACAUGAGGAUCACCCAUGUUCCUC [Fiskers Ex 4 Super stable 44 mod 13] (puzzle: Exclusion 4) |  |  |  |  | 19.5 nM | 
7 | AAUUAGUGAGGAUAUUCGAGCAGUGGCAGUAGCCAGUGCAUGAAGAAGGCACAUGAGGAUCACCCAUGUUAUAA [EX4 #60] (Eterna round: R97, puzzle: Exclusion 4) | 53.4 nM |  | 28.4 nM |  |  | 
8 | AAACAGCAAGGAUAUACGGGCUGUGCUUUUCAUUUCAUACAACAUGAGGAUCACCCAUGUAGAAGGUGCAACAA [Ex2 #4] (Eterna round: R97, puzzle: Exclusion 2) | 125 nM |  | 34.3 nM |  |  | 
9 | UGUCAGAUGGUAGGAUAUCCAUAUCGAGUGACCCUUUCAUAACAUGAGGAUCACCCAUGUUGGUGGGAGAAGGGCCGUAUGGUG [salish99_ExNG02_R04_026] (Eterna round: R96, puzzle: Exclusion NG 2) | 13.2 nM | 12.7 nM | 15.5 nM |  |  | 
10 | GGUCAGCUAGGAUAUACAUGAGGAUCACCCAUGUACUGACCCAUGCGGGAAUCCGCGUGUAGAAGGAGCAAAAG [jl-ex3-4.60 ViennaUCT mod] (Eterna round: R97, puzzle: Exclusion 3) | 33 nM |  | 32.5 nM |  |  | 
11 | AGGUAGUCAGGAUAUUAGGAGUAGCGGGAUAACGCUACGAGUGAGAAGGGACAUGAGGAUCACCCAUGUUUAUU [JR_Ex4_Sub069] (Eterna round: R97, puzzle: Exclusion 4) | 70.3 nM |  | 26.8 nM |  |  | 
12 | AGCUGUGGCCGAGGAUAUCUGUCCCAUAAAACCGAAAUAUAAUCGGACAUGAGGAUCACCCAUGUAGAGAAGGCGGUCUCAGCA [Eli eng2 - 098] (Eterna round: R96, puzzle: Exclusion NG 2) |  | 31.3 nM |  |  |  | 
13 | GAUUAUGCGAGCUUUAGGGACAUGAGGAUCACCCAUGUUCGUCUUAUUAAUCUAGGUACACUGACAUACCUAAAUCU [JMF 64] (puzzle: Sensor v3, turn-off variant 1) |  |  |  | 21.3 nM | 30.5 nM | 21 nM
14 | UAGUUAUUCACAGGAUAUCGCCUCUUAUUACAUGAGGAUCACCCAUGUUUAUUUUGUUACAUGUUCGAGAAGGGUGUAGCCGUU [JR_ExcNG2_Sub045] (Eterna round: R96, puzzle: Exclusion NG 2) |  | 258 nM |  |  |  | 
15 | AGCCAUGAAGGAUAUACAUGAGGAUCACCCAUGUUGCGGACAGGUUUGAUCGGCGUAGGUAGAAGGUCAAGUAG [Eternabot (L2) Solution 62] (Eterna round: R97, puzzle: Exclusion 3) | 28.2 nM |  | 22.1 nM |  |  | 
16 | CGGUCCUGAGUGAGGAUAUUGUCAGGCGAAGCCUGCAAGAAGGUACUUGAGGAUCACCCAAGUACGCUCUUGGC [Estimama] (Eterna round: R97, puzzle: Brourd's mod of Exclusion 4) | 21.2 nM |  | 16.8 nM |  |  | 
17 | AAUAACAGAGGAUAUACUGUUUUAUGUGUUUAUUGUUUUAAACAUGAGGAUCACCCAUGUAGAAGGCUGAGUAA [JMF 32] (puzzle: Exclusion 2) |  |  |  |  | 33.5 nM | 
18 | UUAAUUACGGUGCUUUAACCUCACAUGAGGAUCACCCAUGUGCAGGAUAUCAGCUCGUGUAGAGCUGAGAAGGGCACUGCACCG [ExNG3/11-A3] (Eterna round: R96, puzzle: Exclusion NG 3) | 14 nM | 8.05 nM | 12.1 nM |  |  | 
19 | GCUGGUCGAGGAUAUGCAAUCGUGCUUCGGCACGUAAGAUCACAUGAGGAUCACCCAUGUAGAAGGUGACCAGC [E2/3-B1] (Eterna round: R97, puzzle: Exclusion 2) | 31.2 nM |  | 17.8 nM |  |  | 
20 | AGUACUAACACGAAAGUGUUAGUACAAUAAGCUUGUGUUACAUGAGGAUCACCCAUGUCCUCAUAAGCUCGUCUUAG [Mat - Sensor v3 - Turn-off var 2 - D50] (puzzle: Sensor v3, turn-off variant 2) |  |  |  | 45.9 nM | 351 nM | 45.4 nM
21 | CAGUACUGAGGAUAUACAUGAGGAUCACCCAUGUGUUCCAGCUUGGAAACUAGCAAAAGUAGAAGGCAGUACUG [salish99_ex3_r3_097x] (puzzle: Exclusion 3) |  |  |  |  | 16.6 nM | 
22 | GUCGUGUUAGGAUAUGCAUGUGGACGAUGUUCUCCGCCGGUGUAGAAGGAACAUGAGGAUCACCCAUGUGCCUA [Eternabot (L1) Solution 79] (Eterna round: R97, puzzle: Exclusion 4) | 45.6 nM |  | 52.5 nM |  |  | 
23 | AAUGUCCAACGAGGAUAUGGGAAAGGAAGUGUACCAGAAGGCGUACGGACAUGAGGAUCACCCAUGUCGCGCGGCGCGAUGUGG [PowerStrip EXNG 1.14] (Eterna round: R96, puzzle: Exclusion NG 1) | 80.9 nM | 46.4 nM | 52.7 nM |  |  | 
24 | ACAUGAGGAUCACCCAUGUUUGGCUGGUUCUCUCCGGCUGUCGAGGAUAUAGUCCGGUAUCCGCGCUAGAAGGUGAGGGCUGGC [Aenatbe mod 6] (Eterna round: R96, puzzle: Exclusion NG 3) | 17 nM | 12.3 nM | 16.1 nM |  |  | 
25 | CUUGUGUGAGGAUAUGAAUUGCCUGGUCAUCCAGGCUCCUGUCAGAAGGCACAUGAGGAUCACCCAUGUGGGCA [Biatire] (Eterna round: R97, puzzle: Exclusion 4) | 120 nM |  | 882 nM |  |  | 
26 | AAGAGUAGAGGAUAUACGAAAAAAGAGUCGAAAGACUCGGGACAUGAGGAUCACCCAUGUAGAAGGCUACUCAA [Hyphema Seclusion Mod 62% 5] (Eterna round: R96, puzzle: Exclusion 2) |  | 19.4 nM |  |  |  | 
